Values quoted from earlier work in article PMC2912330.
pKd: −log10 of the molar value. Like-named read-outs stand apart in the source and are kept apart here.

Tests used:
[1] = target: VEGFR2 (Homo sapiens) (UniProt P35968)
[2] = target: VEGFR2 (Homo sapiens) (UniProt P35968); remark: listed apart in the source

Sequence of UniProt P35968 (P35968 20-1356): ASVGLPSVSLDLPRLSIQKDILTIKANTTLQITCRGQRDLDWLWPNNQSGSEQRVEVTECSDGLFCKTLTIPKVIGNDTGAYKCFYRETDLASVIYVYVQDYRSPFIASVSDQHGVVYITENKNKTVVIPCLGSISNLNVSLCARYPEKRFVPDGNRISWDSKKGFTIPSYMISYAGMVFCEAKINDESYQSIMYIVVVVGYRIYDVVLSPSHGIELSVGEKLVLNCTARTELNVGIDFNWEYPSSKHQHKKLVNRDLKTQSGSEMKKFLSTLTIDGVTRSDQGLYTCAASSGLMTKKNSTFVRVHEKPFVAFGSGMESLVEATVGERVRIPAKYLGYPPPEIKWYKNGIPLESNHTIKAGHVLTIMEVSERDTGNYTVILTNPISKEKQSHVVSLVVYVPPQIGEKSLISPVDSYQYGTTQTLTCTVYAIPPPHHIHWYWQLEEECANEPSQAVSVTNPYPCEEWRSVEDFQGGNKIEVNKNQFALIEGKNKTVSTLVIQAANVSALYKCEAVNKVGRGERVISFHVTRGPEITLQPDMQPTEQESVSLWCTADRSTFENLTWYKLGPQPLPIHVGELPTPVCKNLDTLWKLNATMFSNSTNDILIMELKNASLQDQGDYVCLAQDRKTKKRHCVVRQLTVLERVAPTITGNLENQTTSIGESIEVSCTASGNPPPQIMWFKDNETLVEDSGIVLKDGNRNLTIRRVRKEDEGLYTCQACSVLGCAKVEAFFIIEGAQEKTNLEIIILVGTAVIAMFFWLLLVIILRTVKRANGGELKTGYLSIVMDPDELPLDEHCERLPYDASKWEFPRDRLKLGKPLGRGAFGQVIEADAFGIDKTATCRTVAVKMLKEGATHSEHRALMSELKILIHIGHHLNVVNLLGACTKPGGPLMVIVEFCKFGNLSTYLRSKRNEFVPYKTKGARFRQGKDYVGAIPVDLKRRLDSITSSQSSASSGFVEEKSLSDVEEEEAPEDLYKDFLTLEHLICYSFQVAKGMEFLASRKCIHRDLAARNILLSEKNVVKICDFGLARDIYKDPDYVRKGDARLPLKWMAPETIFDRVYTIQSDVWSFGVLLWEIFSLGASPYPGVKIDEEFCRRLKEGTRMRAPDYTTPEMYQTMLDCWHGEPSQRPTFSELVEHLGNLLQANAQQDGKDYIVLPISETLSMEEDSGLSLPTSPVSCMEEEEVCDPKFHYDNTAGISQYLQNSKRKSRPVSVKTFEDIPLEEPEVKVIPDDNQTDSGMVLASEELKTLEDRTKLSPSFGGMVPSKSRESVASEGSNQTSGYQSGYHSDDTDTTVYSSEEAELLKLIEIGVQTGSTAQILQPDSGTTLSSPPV

pKd [1] | pKd [2] | Substance
10.00 | – | VEGF114 VEGF114 (from UniProt P15692)
– | 10.00 | VEGF165 VEGF165 (from UniProt P15692)
